From PMC5485859

Tests used:
Conditions in all cases: reference: WT HSP90α, after IR; sites T5,T7
[1] = target: endothelial nitric oxide synthase (eNOS) (UniProt P70313); experiment: co-immunoprecipitation
androgen receptor (AR) = androgen receptor (AR) (UniProt P19091); experiment: co-immunoprecipitation
[2] = target: glucocorticoid receptor (GR) (UniProt P06537); experiment: anti-GR IP, anti-Flag blot
liver kinase B1 (LKB1) = liver kinase B1 (LKB1) (UniProt Q9WTK7); experiment: anti-LKB1 IP, anti-Flag blot

Measured: binding against the reference

HSP90α (from UniProt P07901) T5,7A HSP90α, after IR
stronger: all assays above
